{"source": "patent US20130071357A1", "about": "“IDENTIFICATION, PROLIFERATION IN SITU, HARVESTING, SEPARATION, AND TRANSPLANTATION OF ADULT-DERIVED REGENERATIVE PLURIPOTENT TRANSITIONAL BLASTOMERE-LIKE STEM CELLS AND METHODS OF TREATMENT THEREOF” (HEYGEN, LLC, priority 2011, published 2013)", "molecules": {"B1": {"name": "brain-derived neurotrophic factor: lineage-induction agent (protein, UniProt P23560 19-247, looked up)", "Neurotrophic factor BDNF …": "APMKEANIRGQGGLAYPGVRTHGTLESVNGPKAGSRGLTSLADTFEHVIEELLDEDQKVRPNEENNKDADLYTSRVMLSSQVPLEPPLLFLLEEYKNYLDAANMSMRVRRHSDPARRGELSVCDSISEWVTAADKKTAVDMSGGTVTVLEKVPVSKGQLKQYFYETKCNPMGYTKEGCRGIDKRHWNSQCRTTQSYVRALTMDSKKRIGWRFIRIDTSCVCTLTIKRGR"}}, "key": {"[1]": {"system": "adult totipotent blastomeric-like stem cells", "assay": "induction of blastomeric-like stem cells in culture", "assay_type": "cell-based, rat", "conditions": "BLSCs", "from_the_text": "1961; Rohme 1981; Young and Black, 2005a].\nFIG. 7. Blastomeric-like stem cells (BLSCs) harvested from male Sprague-Dawley out bred rat 0001 and propagated from a single cell derived by serial dilution clonogenic analysis, then genomically labeled with LacZ to synthesize the beta-galactosidase gene product. Clone designated as Scl-44beta. […] B-L is phase contrast microscopy to show unstained cells in field of view. […] Original magnification 200×.\nFIG. 8. Blastomeric-like stem cells (BLSCs) harvested from male Sprague-Dawley out bred rat 0001 and propagated from a single cell derived by serial dilution clonogenic analysis, then genomically labeled with LacZ to synthesize the beta-galactosidase gene product. Clone designated as Scl-44beta."}, "[2]": {"system": "adult pluripotent epiblast-like stem cells", "assay": "induction of epiblast-like stem cells in culture", "assay_type": "cell-based, rat", "conditions": "ELSCs"}}, "data": [{"molecule": "B1", "values": [{"measurement": "response to lineage-induction agent", "setting": "[1]", "value": "forming cells belonging to the ectodermal lineage"}, {"measurement": "response to lineage-induction agent", "setting": "[2]", "value": "forming cells belonging to the ectodermal lineage"}]}]}
